Results as given in patent US6051698, “Vascular endothelial growth factor (VEGF) nucleic acid ligand complexes”.

Tests used:
VEGF165 [1] = target: T1, VEGF165 (Homo sapiens, UniProt P15692-4 P15692-4:27-191); experiment: filter; 37 C; conditions: tags: R&D Systems, expressed in Sf21 insect cells, carrier-free; chain copies: 2
Protocol: Nucleic Acid Ligands radiolabeled during transcription by incorporation of α-[^32P]-labeled NTPs, or after synthesis using γ-[^32P]-ATP and T4 polynucleotide kinase, were incubated in low concentration (between 20 and 70 pM) with varying concentrations of VEGF or other growth factors at 37° C. for 15 minutes. Incubations were in TBS, PBS, or HEPES-buffered saline (HBS), pH 7.4, with or without the addition of supplemental divalent cations. Samples were passed through prewashed 0.45μ Type HA filters (Millipore) followed by a 5–10 ml wash with binding buffer. Filters were immersed in scintillant and counted to quantitate the amount of protein-bound RNA retained by each filter. The equilibrium dissociation constant (K_D) of Nucleic Acid Ligand binding to a specific protein was calculated from thc data points as described in Green et al. (1996) Biochem. 35: 14413–14424.

VEGF165 [2] = target: T1, VEGF165; experiment: filter; EDTA, no divalents; Mg2+ does not rescue, Ca2+ fully restores; conditions: tags: R&D Systems, expressed in Sf21 insect cells, carrier-free; chain copies: 2

T1 sequence (P15692 other isoform, or with tags, fused parts or gaps): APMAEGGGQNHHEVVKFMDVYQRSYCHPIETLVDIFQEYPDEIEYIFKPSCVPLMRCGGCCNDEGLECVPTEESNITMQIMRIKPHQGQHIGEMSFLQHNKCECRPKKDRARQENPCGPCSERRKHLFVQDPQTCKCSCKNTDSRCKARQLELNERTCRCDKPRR

B1: t22 (ssRNA)
RNA: GACGAUGCGGUAGGAAGAAUUGGAAGCGCT
modifications: 2'-F pyrimidines, 2'-OH purines, 3'-3' dT cap [30 (3'-3' dT cap); 2'-F pyrimidines 3,6,8,11,20,21,27,29]
Binder B1 has a Kd (VEGF165 [1]) of 70 pM.

B2: t22e (ssRNA)
RNA: GGUAGGAAGAAUUGGAAGCGCT
modifications: 2'-F pyrimidines, 2'-OH purines, 3'-3' dT cap [22 (3'-3' dT cap); 2'-F pyrimidines 3,12,13,19,21]
For B2, the Kd (VEGF165 [1]) was 200 pM.

B3: t2 (ssRNA)
RNA: GGCGAACCGAUGGAAUUUUUGGACGCUCGCCT
modifications: 2'-F pyrimidines, 2'-OH purines, 3'-3' dT cap [32 (3'-3' dT cap); 2'-F pyrimidines 3,7,8,11,16,17,18,19,20,24,26,27,28,30,31]
Binder B3 has a Kd (VEGF165 [1]) of 20 pM.

With GACGAUGCGGUAGGAAGAAUUGGAAGCGC (ssRNA, 2'-F pyrimidines, 2'-OMe purines except 2'-OH at A12, G22) [t22OMe (OH-12,22)] the Kd (VEGF165 [1]) was 90 pM.

CGGAAUCAGUGAAUGCUUAUACAUCCG (ssRNA, 2'-F pyrimidines, 2'-OMe purines except two 2'-OH purines) [t44OMe] was tested, and the Kd (VEGF165 [2]) was over 100000 pM.
